Columns and labels:
[1] = biological target: T1, human myostatin (mature, recombinant; R&D Systems) (human, UniProt O14793 267-375); experiment: cell-based or functional assay
T1 sequence: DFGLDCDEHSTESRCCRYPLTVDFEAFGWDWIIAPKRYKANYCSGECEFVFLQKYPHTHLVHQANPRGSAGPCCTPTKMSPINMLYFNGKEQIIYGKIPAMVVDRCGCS

[2] = biological target: T1, human myostatin (mature, recombinant; …); experiment: cell-based or functional assay; remark: listed apart in the source
[3] = biological target: T2, human Activin A (R&D Systems) (human, UniProt P08476 311-426); experiment: cell-based or functional assay
T2 sequence (looked up): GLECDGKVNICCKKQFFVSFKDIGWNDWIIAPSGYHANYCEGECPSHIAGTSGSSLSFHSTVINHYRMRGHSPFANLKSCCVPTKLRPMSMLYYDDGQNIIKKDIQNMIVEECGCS

[4] = biological target: T3, human BMP-11 (GDF-11; R&D Systems) (human, UniProt O95390 299-407); experiment: cell-based or functional assay
T3 sequence (looked up): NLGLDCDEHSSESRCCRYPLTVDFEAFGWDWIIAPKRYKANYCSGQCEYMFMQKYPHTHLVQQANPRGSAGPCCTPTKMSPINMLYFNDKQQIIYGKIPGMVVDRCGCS

[5] = biological target: T1, human myostatin (mature, recombinant; …); experiment: competitive HTRF (1889E01/myostatin/ActRIIb-Fc sandwich)
Description: An HTRF assay was used to measure the binding affinities of anti-myostatin Adnectins to myostatin. […] The Eu-W 1024 labeled Streptavidin is used to bind biotinylated 1889E01. […] In the presence of a competitive Adnectin, the HTRF signal decreases.

B1: 3007_B08 (designed binder)
chain: MGVSDVPRDLEVVAATPTSLLISWSLPTPGLAHYYRITYGETGGNSPVQEFTVPGRGVTATISGLKPGVDYTITVYAVTVTHHGVIGYKPISINYRTEIDKPSQHHHHHH
In the case of B1, the “pSmad2 % inhibition at 10 nM” value [1] is reported as 97%, the “ARE-luciferase IC50” value [2] is reported as 0.06 nM and the “ARE-luciferase IC50” value [3] is reported as 423 nM. For the same binder, the “ARE-luciferase IC50” value [4] was 0.23 nM and the IC50 [5] was 0.14 nM.

B2: 2987_D05 (designed binder)
chain: MGVSDVPRDLEVVAATPTSLLISWSLPHAGHAHYYRITYGETGGNSPVQEFTVPGRGVTATISGLKPGVDYTITVYAVTLTRSKIIHYMPISINYRTEIDKPSQHHHHHH
In the case of B2, the “ARE-luciferase IC50” value [2] is reported as 0.11 nM, the “ARE-luciferase IC50” value [3] is reported as 2000 nM and the “ARE-luciferase IC50” value [4] is reported as 2.4 nM.

B3: 2987_G09 (designed binder)
chain: MGVSDVPRDLEVVAATPTSLLISWTLPHAGRAHYYRITYGETGGNSPVQEFTVPGRGVTATISGLKPGVDYTITVYAVTVSSTKVIVYLPISINYRTEIDKPSQHHHHHH
B3 was tested, and the “ARE-luciferase IC50” value [2] was 0.05 nM, the “ARE-luciferase IC50” value [3] was greater than 2000 nM and the “ARE-luciferase IC50” value [4] was 0.91 nM.

B4: 2987_C02 (designed binder)
chain: MGVSDVPRDLEVVAATPTSLLISWSLPYAGHAHYYRITYGETGGNSPVQEFTVPGRGVTATISGLKPGVDYTITVYAVTLTKSKIIHYMPISINYRTEIDKPSQHHHHHH
With B4 the “ARE-luciferase IC50” value [2] was 0.06 nM, the “ARE-luciferase IC50” value [3] was 464 nM and the “ARE-luciferase IC50” value [4] was 7.1 nM.

B5: 2987_E08 (designed binder)
chain: MGVSDVPRDLEVVAATPTSLLISWTLPHAGRAHYYRITYGETGGNSPVQEFTVPGRGVTATISGLKPGVDYTITVYAVTVSSTKVIHYKPISINYRTEIDKPSQHHHHHH
B5 was tested, and the “ARE-luciferase IC50” value [2] was 0.05 nM, the “ARE-luciferase IC50” value [3] was 352 nM and the “ARE-luciferase IC50” value [4] was 2.8 nM.

B6: 2987_A06 (designed binder)
chain: MGVSDVPRDLEVVAATPTSLLISWSLPHAGHAHYYRITYGETGGNSPVQEFTVPGRGVTATISGLKPGVDYTITVYAVTLTKSKIIHYMPISINYRTEIDKPSQHHHHHH
B6 was tested, and the “ARE-luciferase IC50” value [2] was 0.1 nM, the “ARE-luciferase IC50” value [3] was 283 nM and the “ARE-luciferase IC50” value [4] was 23 nM.

B7: 2987_F06 (designed binder)
chain: MGVSDVPRDLEVVAATPTSLLISWSLPHAGHAHYYRITYGETGGNSPVQEFTVPGRGVTATISGLKPGVDYTITVYAVTLTKSKVIHYMPISINYRTEIDKPSQHHHHHH
In the case of B7, the “ARE-luciferase IC50” value [2] is reported as 0.08 nM, the “ARE-luciferase IC50” value [3] is reported as 538 nM and the “ARE-luciferase IC50” value [4] is reported as 20 nM.

B8: 2987_G04 (designed binder)
chain: MGVSDVPRDLEVVAATPTSLLISWSLPYPGHLNYYRITYGETGGNSPVQEFTVPGRGVTATISGLKPGVDYTITVYAVTLTKSKVIHYMPISINYRTEIDKPSQHHHHHH
B8 was tested, and the “ARE-luciferase IC50” value [2] was 0.09 nM, the “ARE-luciferase IC50” value [3] was 171 nM and the “ARE-luciferase IC50” value [4] was 3.3 nM.

B9: 2987_H02 (designed binder)
chain: MGVSDVPRDLEVVAATPTSLLISWSLPYAGHAHYYRITYGETGGNSPVQEFTVPGRGVTATISGLKPGVDYTITVYAVTLTKSKVIHYMPISINYRTEIDKPSQHHHHHH
B9 was tested, and the “ARE-luciferase IC50” value [2] was 0.05 nM, the “ARE-luciferase IC50” value [3] was 794 nM and the “ARE-luciferase IC50” value [4] was 11 nM.

B10: 2987_F01 (designed binder)
chain: MGVSDVPRDLEVVAATPTSLLISWSLPYAGHAHYYRITYGETGGNSPVQEFTVPGRGVTATISGLKPGVDYTITVYAVTLTRSKIIHYMPISINYRTEIDKPSQHHHHHH
B10 was tested, and the “ARE-luciferase IC50” value [2] was 0.05 nM, the “ARE-luciferase IC50” value [3] was 594 nM and the “ARE-luciferase IC50” value [4] was 6.5 nM.

B11: 3008_B08 (designed binder)
chain: MGVSDVPRDLEVVAATPTSLLISWSLPHAGDAHYYRITYGETGGNSPVQEFTVPGRGVTATISGLKPGVDYTITVYAVTVTRAGFYRYKPISINYRTEIDKPSQHHHHHH
In the case of B11, the “pSmad2 % inhibition at 10 nM” value [1] is reported as 90%, the “ARE-luciferase IC50” value [2] is reported as 0.35 nM and the “ARE-luciferase IC50” value [3] is reported as 254 nM. The “ARE-luciferase IC50” value [4] was 9.3 nM and the IC50 [5] was 0.37 nM.

B12: 3008_A03 (designed binder)
chain: MGVSDVPRDLEVVAATPTSLLISWSLPHHGFGHYYRITYGETGGNSPVQEFTVPGRGVTATISGLKPGVDYTITVYAVTVTATGIIIYKPISINYRTEIDKPSQHHHHHH
With B12 the “pSmad2 % inhibition at 10 nM” value [1] was 87%, the “ARE-luciferase IC50” value [2] was 0.11 nM and the “ARE-luciferase IC50” value [3] was greater than 2000 nM. The “ARE-luciferase IC50” value [4] was 22.6 nM and the IC50 [5] was 0.22 nM.

B13: 3008_D04 (designed binder)
chain: MGVSDVPRDLEVVAATPTSLLISWSLPHNGVAHYYRITYGETGGNSPVQEFTVPGRGVTATISGLKPGVDYTITVYAVTVTREEVISYKPISINYRTEIDKPSQHHHHHH
For B13, the “pSmad2 % inhibition at 10 nM” value [1] was 92%, the “ARE-luciferase IC50” value [2] was 0.09 nM and the “ARE-luciferase IC50” value [3] was 720 nM. The “ARE-luciferase IC50” value [4] was 1.2 nM and the IC50 [5] was 0.14 nM.

B14: 3008_F01 (designed binder)
chain: MGVSDVPRDLEVVAATPTSLLISWSLPRQGLANYYRITYGETGGNSPVQEFTVPGRGVTATISGLKPGVDYTITVYAVTVTAAGVIIYKPISINYRTEIDKPSQHHHHHH
B14 was tested, and the “pSmad2 % inhibition at 10 nM” value [1] was 86%, the “ARE-luciferase IC50” value [2] was 0.08 nM and the “ARE-luciferase IC50” value [3] was greater than 2000 nM. The “ARE-luciferase IC50” value [4] was 0.12 nM and the IC50 [5] was 0.21 nM.

B15: 3007_C10 (designed binder)
chain: MGVSDVPRDLEVVAATPTSLLISWSLPSSGVAHYYRITYGETGGNSPVQEFTVPGRGVTATISGLKPGVDYTITVYAVTVTNTGVIIYKPISINYRTEIDKPSQHHHHHH
With B15 the “pSmad2 % inhibition at 10 nM” value [1] was 76%, the “ARE-luciferase IC50” value [2] was 0.03 nM and the “ARE-luciferase IC50” value [3] was greater than 2000 nM. For the same binder, the “ARE-luciferase IC50” value [4] was 1 nM and the IC50 [5] was 0.14 nM.

B16: 3007_C09 (designed binder)
chain: MGVSDVPRDLEVVAATPTSLLISWSLPHRGVANYYRITYGETGGNSPVQEFTVPGRGVTATISGLKPGVDYTITVYAVTLTGANVIIYKPISINYRTEIDKPSQHHHHHH
With B16 the “pSmad2 % inhibition at 10 nM” value [1] was 80%, the “ARE-luciferase IC50” value [2] was 0.04 nM and the “ARE-luciferase IC50” value [3] was 417 nM. The “ARE-luciferase IC50” value [4] was 0.89 nM and the IC50 [5] was 0.14 nM.

B17: ATI-1340 [N-ethylmaleimide] (designed binder)
chain: MGVSDVPRDLEVVAATPTSLLISWTLPHAGRAHYYRITYGETGGNSPVQEFTVPGRGVTATISGLKPGVDYTITVYAVTVTTTKVIHYKPISINYRTEGSGCHHHHHH
modifications: N-ethylmaleimide on the Cys of the EGSGC tail
notes: cysteine mutant of 2987_H07
B17 was tested, and the “ARE-luciferase IC50” value [2] was 0.05 nM, the “ARE-luciferase IC50” value [3] was 324 nM and the “ARE-luciferase IC50” value [4] was 4.87 nM. The IC50 [5] was 0.16 nM.

B18: 2987_B04 (designed binder)
chain: MGVSDVPRDLEVVAATPTSLLISWSLPYPGHLNYYRITYGETGGNSPVQEFTVPGRGVTATISGLKPGVDYTITVYAVTLTKSKIIHYMPISINYRTEIDKPSQHHHHHH
B18 was tested, and the “ARE-luciferase IC50” value [2] was 0.12 nM, the “ARE-luciferase IC50” value [3] was 239 nM and the “ARE-luciferase IC50” value [4] was 3.3 nM.

B19: 2987_E03 (designed binder)
chain: MGVSDVPRDLEVVAATPTSLLISWSLPYPGHLNYYRITYGETGGNSPVQEFTVPGRGVTATISGLKPGVDYTITVYAVTLTRSKIIHYMPISINYRTEIDKPSQHHHHHH
B19 was tested, and the “ARE-luciferase IC50” value [2] was 0.1 nM, the “ARE-luciferase IC50” value [3] was 224 nM and the “ARE-luciferase IC50” value [4] was 2.3 nM.

B20: 2987_B09 (designed binder)
chain: MGVSDVPRDLEVVAATPTSLLISWTLPHAGRAHYYRITYGETGGNSPVQEFTVPGRGVTATISGLKPGVDYTITVYAVTLTRSKIIHYMPISINYRTEIDKPSQHHHHHH
B20 was tested, and the “ARE-luciferase IC50” value [2] was 0.01 nM, the “ARE-luciferase IC50” value [3] was 172 nM and the “ARE-luciferase IC50” value [4] was 0.92 nM.

Source: patent publication US20170088602A1 (Bristol-Myers Squibb, published 2017)
